Measured values reported in article PMC6030205, “The REN4 rheostat dynamically coordinates the apical and lateral domains of Arabidopsis pollen tubes” (Nature Communications, 2018).

Target: T1, MBP-REN4 (Arabidopsis, UniProt O48716 1-465)
T1 construct: REN4, Arabidopsis, AT2G26490; full length REN4 CDS with stop codon (465 aa) in pDest-566; CDS with stop codon in pDest-566 (Addgene) implies an N-terminal MBP; that vector may also add a His6 tag (surmise); also called REN4 fused with MBP; source: E. coli, purified (amylose beads)
T1 sequence (looked up): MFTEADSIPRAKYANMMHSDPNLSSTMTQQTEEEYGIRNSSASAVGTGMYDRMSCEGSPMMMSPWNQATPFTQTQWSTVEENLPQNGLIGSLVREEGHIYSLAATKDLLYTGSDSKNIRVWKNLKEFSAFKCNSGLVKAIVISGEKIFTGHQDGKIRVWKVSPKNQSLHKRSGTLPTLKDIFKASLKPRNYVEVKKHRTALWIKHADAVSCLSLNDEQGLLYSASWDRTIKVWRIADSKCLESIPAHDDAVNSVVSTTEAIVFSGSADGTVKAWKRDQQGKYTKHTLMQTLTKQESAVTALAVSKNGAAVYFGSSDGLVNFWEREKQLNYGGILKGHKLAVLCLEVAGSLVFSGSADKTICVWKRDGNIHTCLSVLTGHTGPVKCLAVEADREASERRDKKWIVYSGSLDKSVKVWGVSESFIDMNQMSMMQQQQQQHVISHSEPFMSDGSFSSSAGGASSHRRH
Experiment: pull-down; MBP-REN4 on amylose agarose beads; about 1 ug GST-ROP1 preloaded with 1 mM GTP or GDP; binding buffer 50 mM Tris-HCl pH 7.5, 10 mM MgCl2, 1 mM DTT, 10 mg/ml BSA, 5 mM EDTA; 4 C, 1 h; washes with 1% Triton X-100; anti-GST and anti-MBP blots
Conditions: both partners purified

B1: GST-CA-ROP1 (G15V), GTP-bound constitutively active form of ROP1 (natural protein)
chain: not shown
notes: ROP1, Arabidopsis; full length ROP1 CDS with stop codon, mutated G15V, in pDest15; Incubated with 1 mM GTP before the pull-down; source: E. coli, purified (glutathione-agarose); not shown: GST, N-terminal, kept
B1: binds.
